From US20250145711A1 (Janssen / Centocor, published 2025) come the findings set out here.

The target of assay [1] is T1, Human CD3 epsilon (CD3ε), on primary human pan T cells (human, UniProt P07766 23-207). Description: cell-based or functional assay.
Assay [2] has as its target T1, Human CD3 epsilon (CD3ε), on primary …. Description: flow cytometry on human T cells, anti-human IgG Fc A647 detection. The protocol: The bsAbs were assayed for their abilities bind T cells and to induce T-cell mediated cytotoxicity against H929 cells (ATCC@CRL-9068™). […] Stain buffer with no antibody was added to bottom 4 wells and assign as background control (secondary antibody alone). Parental Cris7b, CD3B695 (bivalent mAb controls) and CD3B375 (bsAb which was monovalent for Cris-7b) were added also with full dose-response curves.
Frozen T-cells were thawed in a 37° C. water bath and transferred gently into conical tube containing warm 5 mL media (RPMI+10% FBS)/1 vial of 1×10⁶ cells. Cells were mixed and centrifuged for 5 minutes at 400×g followed by resuspension in flow staining buffer, and counted and viability checked. Cells were then plated in 50 uL/50,000 cells/well into assay plates. Assay positive control mAb was added in the first column in quadruplicates at 2× at 20 nM in the bottom 4 wells. Stain buffer with no mAb was added to the top 4 wells and assigned as background controls (secondary antibody alone). Serially diluted antibody samples were added at 50 uL/well using Intergra Viaflo according to the attached plate maps and incubated for 1 hr at 37° C. After one hour incubation, 150 uL staining buffer were added to all wells, and cells were spun at 500×g for 5 minutes to pellet cells. Cells were then washed prior to addition of Alexa Fluor 647 (A647) conjugated anti human IgG Fc specific secondary detection antibody at 2 ug/mL in staining buffer. Secondary detection antibody was added at 50 uL/well to the washed cells. Plates were covered with foil and incubated for 30 minutes on ice or in the fridge. 150 uL staining buffer were added to all wells, and cells were spun at 500×g for 5 min to pellet cells. Cells were resuspended in 20 uL running buffer containing 1:1000 dilution of SYTOX™ green dead cell stain and run plates on iQue® Screener flow cytometer (Essen BioScience, Inc.). Briefly, cells were gated on FCS vs. SCS dot plot to eliminate debris. Singlets were gated on SCS-A vs SCS-H dot plot and from singlet population, live cells gated choosing BL1 channel for low/negative with SYTOX™ green viability stain (Thermo Fisher).
For orientation: In flow cytometry, cells or beads pass a laser one at a time.

Assay [3] concerns the target T2, human PSMA on prostate cancer cell lines (22RV1, C4-2B) (human, UniProt Q04609 1-750).
T2 construct: also called PSMA-expressing cell lines
Description: flow cytometry on C4-2B cells, four-parameter fit. On the procedure:
Molecule concentrations ranged from 500-0 nM over 12-points at 3-fold dilution. […] Values reported in the Table 69 were generated by fitting the data to a four-parameter function for ligand binding generating values for y-min, y-max, EC50, and Hill. EC90 were calculated using the equation EC90=[…]\hat{ }(1/Hill)*EC50.

The target of a further assay is T3, recombinant human PSMA (human, UniProt Q04609 44-750).
T3 construct: also called hu PSMA; prostate-specific membrane antigen
T3 sequence (Q04609 44-750 limits assumed): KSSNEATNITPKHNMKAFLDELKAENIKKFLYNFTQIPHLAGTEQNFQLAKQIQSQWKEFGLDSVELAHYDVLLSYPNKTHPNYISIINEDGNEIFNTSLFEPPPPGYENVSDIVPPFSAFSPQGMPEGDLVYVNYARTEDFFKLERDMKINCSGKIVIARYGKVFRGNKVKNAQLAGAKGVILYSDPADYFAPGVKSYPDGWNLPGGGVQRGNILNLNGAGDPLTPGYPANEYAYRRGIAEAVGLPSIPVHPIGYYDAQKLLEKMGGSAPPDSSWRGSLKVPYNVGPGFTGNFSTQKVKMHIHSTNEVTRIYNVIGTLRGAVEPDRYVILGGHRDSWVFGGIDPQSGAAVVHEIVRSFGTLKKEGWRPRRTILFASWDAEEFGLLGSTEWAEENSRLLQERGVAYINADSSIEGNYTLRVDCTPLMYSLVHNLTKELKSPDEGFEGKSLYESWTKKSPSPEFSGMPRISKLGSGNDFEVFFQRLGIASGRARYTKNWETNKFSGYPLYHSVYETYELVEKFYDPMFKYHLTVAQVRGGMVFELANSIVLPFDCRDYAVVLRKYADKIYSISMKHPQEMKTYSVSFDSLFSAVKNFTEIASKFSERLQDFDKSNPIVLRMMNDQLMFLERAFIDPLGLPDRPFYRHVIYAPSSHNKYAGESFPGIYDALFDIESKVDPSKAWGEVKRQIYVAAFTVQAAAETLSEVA
Description: SPR (Biacore 8K), antibody captured on anti-Fc, PSMA in solution. The protocol:
The antibodies were captured on a goat anti-Fc antibody-modified C1 chip and titrated with 3-fold serial dilutions of PSMA antigen spanning concentrations of 1 nM to 100 nM human PSMA. The association and dissociation were monitored for 3 and 30 minutes, respectively, using a flow rate of 50 μL/min. Raw binding data was referenced by subtracting the analyte binding signals from blanks and analyzed using a 1:1 Langmuir binding model by the Biacore Insight evaluation software to obtain the kinetics which were used to calculate the binding affinity. The anti-PSMA were captured using an anti-human Fc antibody and the antigens were injected in solution.
On the technique in general: In SPR one partner is held on a chip, and binding of the other changes the refractive index at the surface.

Assay [4] concerns the target T1, Human CD3 epsilon (CD3ε), on primary …. In words: cell-based or functional assay. The source holds these as a separate data set.

T1 sequence (P07766 23-207 limits assumed): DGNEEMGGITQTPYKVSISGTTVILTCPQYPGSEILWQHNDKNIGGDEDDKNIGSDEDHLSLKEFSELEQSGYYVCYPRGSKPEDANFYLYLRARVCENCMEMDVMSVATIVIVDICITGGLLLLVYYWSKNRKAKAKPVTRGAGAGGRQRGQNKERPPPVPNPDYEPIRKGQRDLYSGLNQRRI
T2 sequence (Q04609 whole entry): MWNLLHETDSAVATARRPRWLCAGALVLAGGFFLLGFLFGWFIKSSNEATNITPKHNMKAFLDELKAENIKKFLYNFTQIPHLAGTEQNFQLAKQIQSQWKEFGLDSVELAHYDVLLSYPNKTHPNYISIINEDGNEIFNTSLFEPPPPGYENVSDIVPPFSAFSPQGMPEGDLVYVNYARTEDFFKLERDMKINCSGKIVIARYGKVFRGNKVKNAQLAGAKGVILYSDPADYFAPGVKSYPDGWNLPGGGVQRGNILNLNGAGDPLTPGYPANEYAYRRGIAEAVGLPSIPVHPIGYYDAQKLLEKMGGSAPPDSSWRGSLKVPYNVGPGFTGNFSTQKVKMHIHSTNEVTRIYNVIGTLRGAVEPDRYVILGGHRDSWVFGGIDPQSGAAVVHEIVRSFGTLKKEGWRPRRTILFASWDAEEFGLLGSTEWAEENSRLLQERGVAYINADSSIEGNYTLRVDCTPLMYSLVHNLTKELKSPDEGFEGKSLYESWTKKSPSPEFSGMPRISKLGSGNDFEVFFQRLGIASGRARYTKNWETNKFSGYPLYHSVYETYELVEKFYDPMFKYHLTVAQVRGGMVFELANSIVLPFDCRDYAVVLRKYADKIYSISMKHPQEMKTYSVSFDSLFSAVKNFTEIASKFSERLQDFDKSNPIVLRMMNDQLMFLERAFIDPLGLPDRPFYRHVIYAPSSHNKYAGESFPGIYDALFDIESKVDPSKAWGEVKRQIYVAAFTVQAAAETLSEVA

B1: BC3B129 (bispecific antibody, human IgG1, kappa, L234A L235A)
chain: EIVLTQSPATLSASPGERVTLSCSASSSVSYMNWYQQKPGQAPRRWIYDSSKLASGVPARFSGSGSGRDYTLTISSLEPEDFAVYYCQQWSRNPPTFGGGTKVEIKGGSEGKSSGSGSESKSTGGSQVQLVQSGAEVKKPGSSVKVSCKASGYTFTRSTMHWVRQAPGQGLEWMGYINPSSAYTNYAQKFQGRVTLTADKSTSTAYMELSSLRSEDTAVYYCASPQVHYDYSGFPYWGQGTLVTVSSEPKSSDKTHTCPPCPAPEAAGGPSVFLFPPKPKDTLMISRTPEVTCVVVSVSHEDPEVKFNWYVDGVEVHNAKTKPREEQYNSTYRVVSVLTVLHQDWLNGKEYKCKVSNKALPAPIEKTISKAKGQPREPQVYVYPPSREEMTKNQVSLTCLVKGFYPSDIAVEWESNGQPENNYKTTPPVLDSDGSFALVSKLTVDKSRWQQGNVFSCSVMHEALHNHYTQKSLSLSPG
heavy: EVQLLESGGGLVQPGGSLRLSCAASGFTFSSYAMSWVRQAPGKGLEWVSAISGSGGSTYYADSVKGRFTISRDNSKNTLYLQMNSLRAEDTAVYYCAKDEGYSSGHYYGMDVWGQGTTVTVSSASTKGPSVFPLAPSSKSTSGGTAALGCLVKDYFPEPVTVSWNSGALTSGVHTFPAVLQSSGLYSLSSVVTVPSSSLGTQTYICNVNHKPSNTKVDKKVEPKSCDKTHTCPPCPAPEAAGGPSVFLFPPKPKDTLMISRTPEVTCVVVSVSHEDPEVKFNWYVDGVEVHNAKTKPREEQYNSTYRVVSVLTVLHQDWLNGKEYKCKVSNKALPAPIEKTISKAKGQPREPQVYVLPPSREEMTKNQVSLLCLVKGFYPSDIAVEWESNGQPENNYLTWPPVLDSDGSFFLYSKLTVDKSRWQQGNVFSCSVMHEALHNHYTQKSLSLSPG
light: EIVLTQSPGTLSLSPGERATLSCRASQSISSSFLTWYQQKPGQAPRLLIYGASSRATGIPDRFSGGGSGTDFTLTISRLEPEDFAVYYCQHYGSSPMYTFGQGTKLEIKRTVAAPSVFIFPPSDEQLKSGTASVVCLLNNFYPREAKVQWKVDNALQSGNSQESVTEQDSKDSTYSLSSTLTLSKADYEKHKVYACEVTHQGLSSPVTKSFNRGEC
notes: IgG1 BCMAxCD3; HC1: CD3B2089-N106S LH scFv-Fc; also called BC3B129.001; B2089 LH NtoS
Consider B1, for which the “H929 Killing EC50” value in assay [1] was found to be 10 nM. In assay [2], the EC50 (as a rule, the concentration at which the effect is half-maximal) stood at 300 nM.

B2: PSMB1069 (bispecific antibody, human IgG1, kappa, L234A L235A)
heavy: not shown
light: not shown
chain: QVQLVESGGGEVQPGRSLRLSCAASGFSFSGYGMHWVRQAPGKGLEWVAVMSYDGSNRFYVDSVRGRFSISRDNSKNTLYLQMNSLRPEDTAVYYCARDTVWGSHPDAFDIWGQGTVVTVSSGGSEGKSSGSGSESKSTGGSQSVLTQPPSVSVAPGQTARITCGGNNSGSKSVHWYQQKPGQAPVLVVYDDSDRPSGIPERFSGSNSGNTATLTISRVEAGDEADYYCQVWDSSSDHGVFGGGTKLTVLEPKSSDKTHTCPPCPAPEAAGGPSVFLFPPKPKDTLMISRTPEVTCVVVSVSHEDPEVKFNWYVDGVEVHNAKTKPREEQYNSTYRVVSVLTVLHQDWLNGKEYKCKVSNKALPAPIEKTISKAKGQPREPQVYVLPPSREEMTKNQVSLLCLVKGFYPSDIAVEWESNGQPENNYLTWPPVLDSDGSFFLYSKLTVDKSRWQQGNVFSCSVMHEALHNHYTQKSLSLSPG
notes: HC1 (ZWA): B23B62-Fab; LC2 is NA
On to B2, for which, in assay [3], the EC50 was determined as 44 nM, the concentration for an effect of 90% (EC90) (usually the point of the concentration-response curve where the effect stands at 90%) came out at 254 nM, the Y-max was 3.3e+06 and the Y-min stood at 87000. In addition, in the assay with recombinant human PSMA, the equilibrium dissociation constant (Kd) (commonly the equilibrium constant for the complex coming apart) came to 1.42 nM; the koff (as a rule, the rate constant with which the complex falls apart) was 0.000197 s⁻¹; the on-rate constant (kon) (as a rule, a measure of how fast the partners come together) was determined as 139000 M⁻¹ s⁻¹.

B3: PSMB1075 (bispecific antibody, human IgG1, kappa, L234A L235A)
heavy: not shown
light: not shown
chain: EVQLVESGGGVVQPGRSLRLSCAASGFSFSGYGMHWVRQAPGKGLEWVAVISYDGSNKYYADSVKGRFTISRDNSKNTLYLQMNSLRVEDTAVYYCARDRIWGSRGYYYGMDVWGQGTTVTVSSGGSEGKSSGSGSESKSTGGSQSALTQPASVSGSPGQSITISCTGASSDVGGYNYVSWYQQHPGKAPKLMIYEVSNRPSGVSNRFSGSKSGNTASLTISGLQAEDEADYYCSSYTITSTLVFGGGTKLTVLEPKSSDKTHTCPPCPAPEAAGGPSVFLFPPKPKDTLMISRTPEVTCVVVSVSHEDPEVKFNWYVDGVEVHNAKTKPREEQYNSTYRVVSVLTVLHQDWLNGKEYKCKVSNKALPAPIEKTISKAKGQPREPQVYVLPPSREEMTKNQVSLLCLVKGFYPSDIAVEWESNGQPENNYLTWPPVLDSDGSFFLYSKLTVDKSRWQQGNVFSCSVMHEALHNHYTQKSLSLSPG
notes: as for B2
Take B3: in assay [3], the EC50 stood at 30 nM, the concentration for an effect of 90% (EC90) is 156 nM, the Y-max was 1.3e+06 and the Y-min turned out to be 66000. In the assay with recombinant human PSMA, the Kd amounted to 0.936 nM, the koff was determined as 0.000492 s⁻¹ and the kon is 526000 M⁻¹ s⁻¹.

B4: GCDB131 (bispecific antibody, human IgG1, kappa, L234A L235A)
heavy: QVQLLQSAAEVKKPGESLKISCKGSGYTFTRSTMHWVRQTPGKGLEWMGYINPSSAYTNYNQKFKDQVTISADKSISTAYLQWSSLKASDTAMYYCARPQVHYDYNGFPYWGQGTLVTVSSASTKGPSVFPLAPSSKSTSGGTAALGCLVKDYFPEPVTVSWNSGALTSGVHTFPAVLQSSGLYSLSSVVTVPSSSLGTQTYICNVNHKPSNTKVDKKVEPKSCDKTHTCPPCPAPEAAGGPSVFLFPPKPKDTLMISRTPEVTCVVVSVSHEDPEVKFNWYVDGVEVHNAKTKPREEQYNSTYRVVSVLTVLHQDWLNGKEYKCKVSNKALPAPIEKTISKAKGQPREPQVYVYPPSREEMTKNQVSLTCLVKGFYPSDIAVEWESNGQPENNYKTTPPVLDSDGSFALVSKLTVDKSRWQQGNVFSCSVMHEALHNHYTQKSLSLSPG
light: EIVLTQSPSAMSASVGDRVTITCSASSSVSYMNWYQQKPGKVPKRLIYDSSKLASGVPSRFSGSGSGTEYTLTISSLQPEDFATYYCQQWSRNPPTFGQGTMLEIKRTVAAPSVFIFPPSDEQLKSGTASVVCLLNNFYPREAKVQWKVDNALQSGNSQESVTEQDSKDSTYSLSSTLTLSKADYEKHKVYACEVTHQGLSSPVTKSFNRGEC
chain: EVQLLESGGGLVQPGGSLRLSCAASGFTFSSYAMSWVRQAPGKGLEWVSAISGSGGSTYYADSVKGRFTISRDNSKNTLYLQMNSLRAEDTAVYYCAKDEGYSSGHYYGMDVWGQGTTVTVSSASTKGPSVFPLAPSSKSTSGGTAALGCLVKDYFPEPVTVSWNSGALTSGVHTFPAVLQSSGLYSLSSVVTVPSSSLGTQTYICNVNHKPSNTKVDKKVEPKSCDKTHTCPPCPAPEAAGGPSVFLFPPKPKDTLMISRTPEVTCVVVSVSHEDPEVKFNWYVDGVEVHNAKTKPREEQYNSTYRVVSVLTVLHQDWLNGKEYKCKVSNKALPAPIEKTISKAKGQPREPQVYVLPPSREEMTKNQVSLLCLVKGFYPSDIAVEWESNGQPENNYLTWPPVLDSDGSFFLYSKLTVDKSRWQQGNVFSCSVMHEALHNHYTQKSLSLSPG
As for B4, in assay [4], the “EC50, Cytotoxicity” value came out at 0.0334 nM.

B5: PSMB1060 (bispecific antibody, human IgG1, kappa, L234A L235A)
heavy: not shown
light: not shown
chain: EIVLTQSPGTLSVSPGERATLSCRASQSVRSNLAWYQQKPGQAPRLLIYGASTRATGIPARFSGSGSGTEFTLTISSLQSEDFAVYYCHQYNDWPPYTFGQGTKLEIKGGSEGKSSGSGSESKSTGGSQVQLQESGGGVVQPGRSLRLSCAASGFTFSTYGMHWVRQAPGKGLEWVAFISYDGSNKYYADSVKGRFTISRDNSKHTLYLQMNSLRAEDTAVYYCAGRDNLRFLEWFMDVWGQGTTVTVSSEPKSSDKTHTCPPCPAPEAAGGPSVFLFPPKPKDTLMISRTPEVTCVVVSVSHEDPEVKFNWYVDGVEVHNAKTKPREEQYNSTYRVVSVLTVLHQDWLNGKEYKCKVSNKALPAPIEKTISKAKGQPREPQVYVLPPSREEMTKNQVSLLCLVKGFYPSDIAVEWESNGQPENNYLTWPPVLDSDGSFFLYSKLTVDKSRWQQGNVFSCSVMHEALHNHYTQKSLSLSPG
notes: as for B2
In the case of B5, in assay [3], the EC50 worked out at 11 nM, the EC90 was 59 nM, the Y-max was determined as 1.6e+06 and the Y-min was found to be 86000. For the same molecule, in the assay with recombinant human PSMA, the Kd amounted to 1.02 nM, the koff came to 0.000119 s⁻¹ and the kon stood at 117000 M⁻¹ s⁻¹.

B6: PSMB1047 (bispecific antibody, human IgG1, kappa, L234A L235A)
heavy: not shown
light: not shown
chain: QSVLTQPPSVSVAPGQTARITCGGNNSGSKSVHWYQQKPGQAPVLVVYDDSDRPSGIPERFSGSNSGNTATLTISRVEAGDEADYYCQVWDSSSDHGVFGGGTKLTVLGGSEGKSSGSGSESKSTGGSQVQLVESGGGEVQPGRSLRLSCAASGFSFSGYGMHWVRQAPGKGLEWVAVMSYDGSNRFYVDSVRGRFSISRDNSKNTLYLQMNSLRPEDTAVYYCARDTVWGSHPDAFDIWGQGTVVTVSSEPKSSDKTHTCPPCPAPEAAGGPSVFLFPPKPKDTLMISRTPEVTCVVVSVSHEDPEVKFNWYVDGVEVHNAKTKPREEQYNSTYRVVSVLTVLHQDWLNGKEYKCKVSNKALPAPIEKTISKAKGQPREPQVYVLPPSREEMTKNQVSLLCLVKGFYPSDIAVEWESNGQPENNYLTWPPVLDSDGSFFLYSKLTVDKSRWQQGNVFSCSVMHEALHNHYTQKSLSLSPG
notes: as for B2
Consider B6, for which, in assay [3], the EC50 worked out at 22 nM, the EC90 was determined as 71 nM, the Y-max is 1.6e+06 and the Y-min was 79000. For the same molecule, in the assay with recombinant human PSMA, the Kd turned out to be 2.52 nM, the koff is 0.00175 s⁻¹ and the on-rate (kon) is 694000 M⁻¹ s⁻¹.
